{"source": "paper PMC8417749", "origin": "cited, not measured here", "key": {"[1]": {"target": "CXCR2 (Homo sapiens) (UniProt P25025)", "sequence (P25025 whole entry)": "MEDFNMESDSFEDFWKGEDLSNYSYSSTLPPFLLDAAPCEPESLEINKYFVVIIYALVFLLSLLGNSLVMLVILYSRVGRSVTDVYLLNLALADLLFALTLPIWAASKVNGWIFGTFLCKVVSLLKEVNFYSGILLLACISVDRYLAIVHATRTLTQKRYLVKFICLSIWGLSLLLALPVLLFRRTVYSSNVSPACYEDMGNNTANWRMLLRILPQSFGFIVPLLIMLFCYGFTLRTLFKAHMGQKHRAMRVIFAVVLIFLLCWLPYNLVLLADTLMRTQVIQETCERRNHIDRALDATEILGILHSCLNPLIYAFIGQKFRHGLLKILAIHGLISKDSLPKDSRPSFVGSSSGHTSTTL"}, "[2]": {"target": "CXCR1 (Homo sapiens) (UniProt P25024)", "sequence (P25024 whole entry)": "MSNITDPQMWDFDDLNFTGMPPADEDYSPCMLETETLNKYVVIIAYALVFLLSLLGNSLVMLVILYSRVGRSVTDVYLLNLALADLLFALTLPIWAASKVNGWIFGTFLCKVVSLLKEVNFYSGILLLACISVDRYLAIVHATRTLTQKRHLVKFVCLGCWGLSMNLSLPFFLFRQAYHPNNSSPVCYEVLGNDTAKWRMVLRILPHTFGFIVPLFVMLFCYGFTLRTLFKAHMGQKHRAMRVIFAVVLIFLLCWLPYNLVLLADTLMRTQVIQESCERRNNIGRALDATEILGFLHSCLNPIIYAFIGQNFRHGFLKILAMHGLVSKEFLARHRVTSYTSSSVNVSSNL"}}, "data": [{"substance": "IL-8 (from UniProt P10145)", "values": [{"measurement": "Kd", "setting": "[1]", "value": 2, "unit": "nM"}, {"measurement": "Kd", "setting": "[2]", "value": 2, "unit": "nM"}]}]}
